Laboratory results as given in patent US20230304022, “CHIMERIC POLYPEPTIDES HAVING TARGETED BINDING SPECIFICITY” (The Scripps Research Institute, published 2023).

Target: MBP-TALE AvrXa7 NT-βN (synthetic, [XXX]=Y-H)
Assay: p228, FIG 26
Settings: tags: MBP; label: 5'-biotin; hairpin

B1: Avr 5'C biotin hairpin (dsDNA)
DNA: ATCTTAGCACCTGGTTGGAGGGGGTTTATGGGGTTTTCCCCATAAACCCCCTCCAACCAGGTGCTAAGAT
  binding result: binds

B2: Avr 5'A biotin hairpin (dsDNA)
DNA: ATCTTAGCACCTGGTTGGAGGGGGTTTATTGGGTTTTCCCAATAAACCCCCTCCAACCAGGTGCTAAGAT
  binding result: binds

B3: Avr 5'G biotin hairpin (dsDNA)
DNA: ATCTTAGCACCTGGTTGGAGGGGGTTTATCGGGTTTTCCCGATAAACCCCCTCCAACCAGGTGCTAAGAT
  binding result: binds
